{"source": "paper PMC10906245", "about": "“Hydrogen–Deuterium Exchange Mass Spectrometry Identifies Local and Long-Distance Interactions within the Multicomponent Radical SAM Enzyme, PqqE” (ACS Central Science, 2024)", "key": {"[1]": {"target": "PqqE in complex with PqqD (PqqDE) (Methylorubrum extorquens, UniProt P71517)", "sequence (Q49150 279-372)": "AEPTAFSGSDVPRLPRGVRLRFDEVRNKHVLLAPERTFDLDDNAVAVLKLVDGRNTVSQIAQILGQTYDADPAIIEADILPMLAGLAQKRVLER", "sequence (P71517 whole entry)": "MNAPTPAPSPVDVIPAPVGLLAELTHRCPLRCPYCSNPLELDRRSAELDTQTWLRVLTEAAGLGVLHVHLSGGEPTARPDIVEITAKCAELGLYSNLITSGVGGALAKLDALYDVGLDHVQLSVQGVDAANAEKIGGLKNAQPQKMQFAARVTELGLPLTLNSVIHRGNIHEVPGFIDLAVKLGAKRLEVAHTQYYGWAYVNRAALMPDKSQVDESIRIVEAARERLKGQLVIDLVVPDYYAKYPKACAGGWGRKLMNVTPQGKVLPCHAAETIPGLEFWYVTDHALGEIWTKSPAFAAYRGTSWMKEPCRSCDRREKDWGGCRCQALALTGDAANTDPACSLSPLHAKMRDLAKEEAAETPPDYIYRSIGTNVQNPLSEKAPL", "test": "HDX-MS, PqqDES versus PqqDE", "format": "binding", "details": "no PqqA, no reductant, site at RS Fe4S4 cluster (peptide 21-32)"}, "[2]": {"target": "PqqD (Methylorubrum extorquens) (UniProt Q49148)", "sequence (Q49148 whole entry)": "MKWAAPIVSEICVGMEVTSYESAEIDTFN", "details": "cited from earlier work"}, "[3]": {"target": "PqqE (Methylorubrum extorquens) (UniProt B7KXC6)", "sequence (B7KXC6 whole entry)": "as the sequence (P71517 whole entry) above, with A286S, K293Q counted along it", "details": "cited from earlier work"}}, "data": [{"compound": "C[S+](CC[C@H](N)C(=O)O)C[C@H]1O[C@@H](n2cnc3c(N)ncnc32)[C@H](O)[C@@H]1O", "note": "(stereo partly drawn) [SAM, S-adenosylmethionine]", "values": [{"measurement": "HDX-MS, PqqDES versus PqqDE", "setting": "[1]", "value": "When SAM was added to the PqqDE complex, we identified one type I peptide"}]}, {"compound": "PqqA (from UniProt Q49148)", "values": [{"measurement": "Kd", "setting": "[2]", "value": 390, "unit": "nM"}]}, {"compound": "PqqD (from UniProt Q49148)", "values": [{"measurement": "Kd", "setting": "[3]", "value": 4500, "unit": "nM"}]}]}
